In IntAct's records for PubMed 15078334:

B1: Guanine nucleotide-binding protein alpha-1 subunit (Oryza sativa subsp. japonica (Rice)), Q0DJ33 (parent)
chain: MGSSCSRSHSLSEAETTKNAKSADIDRRILQETKAEQHIHKLLLLGAGESGKSTIFKQIKLLFQTGFDEAELRSYTSVIHANVYQTIKILYEGAKELSQVESDSSKYVISPDNQEIGEKLSDIDGRLDYPLLNKELVLDVKRLWQDPAIQETYLRGSILQLPDCAQYFMENLDRLAEAGYVPTKEDVLYARVRTNGVVQIQFSPVGENKRGGEVYRLYDVGGQRNERRKWIHLFEGVNAVIFCAAISEYDQMLFEDETKNRMMETKELFDWVLKQRCFEKTSFILFLNKFDIFEKKIQKVPLSVCEWFKDYQPIAPGKQEVEHAYEFVKKKFEELYFQSSKPDRVDRVFKIYRTTALDQKLVKKTFKLIDESMRRSREGT
partner: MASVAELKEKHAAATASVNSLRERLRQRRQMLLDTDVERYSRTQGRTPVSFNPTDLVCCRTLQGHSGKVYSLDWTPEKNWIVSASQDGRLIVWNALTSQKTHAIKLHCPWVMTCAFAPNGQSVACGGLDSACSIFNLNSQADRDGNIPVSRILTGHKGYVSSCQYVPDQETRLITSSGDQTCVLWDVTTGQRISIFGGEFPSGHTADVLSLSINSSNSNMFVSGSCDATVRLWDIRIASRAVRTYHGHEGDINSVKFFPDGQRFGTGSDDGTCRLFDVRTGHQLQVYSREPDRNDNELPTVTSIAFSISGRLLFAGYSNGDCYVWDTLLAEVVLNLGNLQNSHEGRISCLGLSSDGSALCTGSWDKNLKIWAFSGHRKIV

Variants of: B1
Conditions: with gbb_orysj RGB1, Q40687

Variant | effect of a mutation on the interaction
Q223L | disrupting interaction
